Experimental data taken from paper doi:10.1101/2021.03.03.433707 (bioRxiv, 2021).

B2: ParC, full length (enzyme, E. coli, UniProt P0AFI2 1-752, looked up)
chain: MSDMAERLALHEFTENAYLNYSMYVIMDRALPFIGDGLKPVQRRIVYAMSELGLNASAKFKKSARTVGDVLGKYHPHGDSACYEAMVLMAQPFSYRYPLVDGQGNWGAPDDPKSFAAMRYTESRLSKYSELLLSELGQGTADWVPNFDGTLQEPKMLPARLPNILLNGTTGIAVGMATDIPPHNLREVAQAAIALIDQPKTTLDQLLDIVQGPDYPTEAEIITSRAEIRKIYENGRGSVRMRAVWKKEDGAVVISALPHQVSGARVLEQIAAQMRNKKLPMVDDLRDESDHENPTRLVIVPRSNRVDMDQVMNHLFATTDLEKSYRINLNMIGLDGRPAVKNLLEILSEWLVFRRDTVRRRLNYRLEKVLKRLHILEGLLVAFLNIDEVIEIIRNEDEPKPALMSRFGLTETQAEAILELKLRHLAKLEEMKIRGEQSELEKERDQLQGILASERKMNNLLKKELQADAQAYGDDRRSPLQEREEAKAMSEHDMLPSEPVTIVLSQMGWVRSAKGHDIDAPGLNYKAGDSFKAAVKGKSNQPVVFVDSTGRSYAIDPITLPSARGQGEPLTGKLTLPPGATVDHMLMESDDQKLLMASDAGYGFVCTFNDLVARNRAGKALITLPENAHVMPPVVIEDASDMLLAITQAGRMLMFPVSDLPQLSKGKGNKIINIPSAEAARGEDGLAQLYVLPPQSTLTIHVGKRKIKLRPEELQKVTGERGRRGTLMRGLQRIDRVEIDSPRRASSGDSEE

Legend:
ParC, full length [1] = target: B2; test: native MS
native MS = target: the molecule itself; test: native MS
ParC, full length [2] = target: B2; test: ITC
[3] = target: T1, MukB, full length, wild type (E. coli, UniProt P22523 1-1486); test: fluorescence correlation spectroscopy
T1 sequence (looked up): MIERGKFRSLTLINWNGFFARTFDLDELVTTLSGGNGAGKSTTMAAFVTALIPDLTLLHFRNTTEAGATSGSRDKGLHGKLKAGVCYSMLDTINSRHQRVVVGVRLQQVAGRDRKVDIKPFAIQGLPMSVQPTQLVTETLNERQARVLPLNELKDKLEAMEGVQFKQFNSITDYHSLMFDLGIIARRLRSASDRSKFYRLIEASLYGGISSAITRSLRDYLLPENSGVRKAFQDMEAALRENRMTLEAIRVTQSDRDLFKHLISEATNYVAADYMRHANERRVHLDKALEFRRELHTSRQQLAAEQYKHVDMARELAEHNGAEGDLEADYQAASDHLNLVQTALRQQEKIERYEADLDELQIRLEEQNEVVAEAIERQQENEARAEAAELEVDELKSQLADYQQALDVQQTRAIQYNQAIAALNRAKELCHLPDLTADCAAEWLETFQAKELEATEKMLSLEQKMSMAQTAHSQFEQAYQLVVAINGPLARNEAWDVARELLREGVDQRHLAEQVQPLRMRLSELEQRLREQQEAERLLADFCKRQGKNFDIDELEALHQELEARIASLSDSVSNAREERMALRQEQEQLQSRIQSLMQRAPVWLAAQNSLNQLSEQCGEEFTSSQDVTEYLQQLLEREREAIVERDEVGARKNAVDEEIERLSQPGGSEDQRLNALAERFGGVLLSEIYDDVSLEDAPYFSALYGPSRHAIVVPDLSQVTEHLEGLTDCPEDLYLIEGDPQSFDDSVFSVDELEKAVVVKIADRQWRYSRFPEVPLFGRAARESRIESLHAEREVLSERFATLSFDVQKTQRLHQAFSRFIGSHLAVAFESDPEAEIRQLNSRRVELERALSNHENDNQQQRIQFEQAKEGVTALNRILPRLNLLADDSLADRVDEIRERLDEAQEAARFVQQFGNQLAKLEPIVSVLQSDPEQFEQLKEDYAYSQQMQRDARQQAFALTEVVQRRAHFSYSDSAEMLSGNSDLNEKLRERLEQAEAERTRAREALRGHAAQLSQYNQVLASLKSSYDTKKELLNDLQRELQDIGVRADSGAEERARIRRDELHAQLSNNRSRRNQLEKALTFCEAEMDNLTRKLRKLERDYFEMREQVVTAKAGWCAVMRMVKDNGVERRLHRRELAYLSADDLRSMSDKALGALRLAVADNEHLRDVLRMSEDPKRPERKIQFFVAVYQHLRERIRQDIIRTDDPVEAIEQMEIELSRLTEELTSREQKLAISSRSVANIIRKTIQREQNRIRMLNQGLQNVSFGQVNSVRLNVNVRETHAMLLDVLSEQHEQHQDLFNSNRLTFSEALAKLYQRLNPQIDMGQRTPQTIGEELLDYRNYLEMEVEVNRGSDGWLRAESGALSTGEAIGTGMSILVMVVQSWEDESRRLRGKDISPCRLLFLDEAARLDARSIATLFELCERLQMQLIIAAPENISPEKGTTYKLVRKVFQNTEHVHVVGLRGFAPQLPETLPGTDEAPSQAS

ParC, full length [4] = target: B2; test: SEC

B1: MukB long hinge (LH, 568-863) (domain or fragment, E. coli, UniProt P22523 568-863, looked up)
chain: SLSDSVSNAREERMALRQEQEQLQSRIQSLMQRAPVWLAAQNSLNQLSEQCGEEFTSSQDVTEYLQQLLEREREAIVERDEVGARKNAVDEEIERLSQPGGSEDQRLNALAERFGGVLLSEIYDDVSLEDAPYFSALYGPSRHAIVVPDLSQVTEHLEGLTDCPEDLYLIEGDPQSFDDSVFSVDELEKAVVVKIADRQWRYSRFPEVPLFGRAARESRIESLHAEREVLSERFATLSFDVQKTQRLHQAFSRFIGSHLAVAFESDPEAEIRQLNSRRVELERALSNHENDNQQQR
ParC, full length [1]
  stoichiometry N: 1 ParC dimer per LH dimer
Native MS
  stoichiometry N: 2
ParC, full length [2]
  Kd: 690 nM
  dH: -7.48 kcal/mol
  stoichiometry N: 0.84

## B2
[3]
  fold decrease in MatP-Cy3B binding to MukB at a 10-fold excess of competitor: 3 fold

B3: MatP^4A (K71A, Q72A, R75A and R77A) (domain or fragment, E. coli, UniProt P0A8N0 1-132, looked up)
chain: MKYQQLENLESGWKWKYLVKKHREGELITRYIEASAAQEAVDVLLSLENEPVLVNGWIDKHMNPELVNRMAATIAAARKRHFNAEHQHTRKKSIDLEFIVWQRLAGLAQRRGKTLSETIVQLIEDAENKEKY
Native MS
  stoichiometry N: 2

B4: MatP^4E (K71E, Q72E, R75E and R77E) (domain or fragment, E. coli, UniProt P0A8N0 1-132, looked up)
chain: MKYQQLENLESGWKWKYLVKKHREGELITRYIEASAAQEAVDVLLSLENEPVLVNGWIDKHMNPELVNRMEETIEAERKRHFNAEHQHTRKKSIDLEFIVWQRLAGLAQRRGKTLSETIVQLIEDAENKEKY
Native MS
  stoichiometry N: 2

B5: ParE-His (enzyme, E. coli, UniProt P20083 1-630, looked up)
chain: MTQTYNADAIEVLTGLEPVRRRPGMYTDTTRPNHLGQEVIDNSVDEALAGHAKRVDVILHADQSLEVIDDGRGMPVDIHPEEGVPAVELILCRLHAGGKFSNKNYQFSGGLHGVGISVVNALSKRVEVNVRRDGQVYNIAFENGEKVQDLQVVGTCGKRNTGTSVHFWPDETFFDSPRFSVSRLTHVLKAKAVLCPGVEITFKDEINNTEQRWCYQDGLNDYLAEAVNGLPTLPEKPFIGNFAGDTEAVDWALLWLPEGGELLTESYVNLIPTMQGGTHVNGLRQGLLDAMREFCEYRNILPRGVKLSAEDIWDRCAYVLSVKMQDPQFAGQTKERLSSRQCAAFVSGVVKDAFILWLNQNVQAAELLAEMAISSAQRRMRAAKKVVRKKLTSGPALPGKLADCTAQDLNRTELFLVEGDSAGGSAKQARDREYQAIMPLKGKILNTWEVSSDEVLASQEVHDISVAIGIDPDSDDLSQLRYGKICILADADSDGLHIATLLCALFVKHFRALVKHGHVYVALPPLYRIDLGKEVYYALTEEEKEGVLEQLKRKKGKPNVQRFKGLGEMNPMQLRETTLDPNTRRLVQLTIDDEDDQRTDAMMDMLLAKKRSEDRRNWLQEKGDMAEIEV
ParC, full length [4]
  binding result: binds
